We go through two molecules from patent US20180188195A1, “SYSTEMS AND METHODS FOR MULTIPLEXED HEMOSTASIS TEST PANELS” (T2 Biosystems, Inc., priority 2015, published 2018).

Bounds are passed on as bounds.

What all share (type): cell-based, human
Assay [1] deals with citrated whole blood. Description: T2In T2MR clotting time, intrinsic pathway activator (ellagic acid). As to conditions: T2In, 3 donors, different tPA concentrations, with or without aprotinin. From the text:
In another embodiment a coagulopathy panel is used with an intrinsic activator such as ellagic acid. The common range of clotting time is often between 100 and 120 seconds for normal blood. However, it can be 22-30 seconds, 30-44 seconds, 44-60 seconds, 60-80 seconds, 80-100 seconds, up to 2 times to 4 times the range of normal T2MR clotting times for the extrinsic activator. The abnormal clotting time ranges are above or below the normal range. The total range easily measured is 8-300 seconds though a measurement up to or beyond 1000 seconds could be performed with modified acquisition. If aprotinin is added in addition to intrinsic activator, clotting times can often be from 110.9-151.0 seconds in normal blood.
The general intrinsic activator protocol is as follows (T2In panel): an intrinsic activator solution was prepared by mixing tissue factor reagent with CaCl2. To 36.7 μL of citrated whole blood (warmed to approximately 37° C. for 3 minutes and mixed) was added 5 μL of the intrinsic activator solution (also been warmed to approximately 37° C. for one minute). The resulting solution was mixed and subjected to T2 measurements for 50 minutes. […] The T2MR of the sample was measured for 30 minutes.
The T2Ex or the T2In protocols were also used with the addition of aprotinin (T2Ex-A and T2In-A) respectively. […] The sample was mixed and read in the T2reader. […]

The test system of assay [2] is citrated whole blood. In words: T2In platelet activity and fibrinolysis measurement with tPA or aprotinin. The note with it: ellagic acid with CaCl2; tPA 0, 2 or 4 nM or aprotinin control; 65 min. On the procedure: The T2Ex or the T2In protocols were also used with the addition of aprotinin (T2Ex-A and T2In-A) respectively. For the intrinsic pathway measurement (T2In), intrinsic activator solution was prepared by mixing ellagic acid stock and CaCl2. For the intrinsic pathway measurement that includes aprotinin (T2In-A), add 41.7 μL of a 1 mg/mL stock of aprotinin to 1 mL intrinsic activator solution. 36.7 μL citrated whole blood that had been warmed to approximately 37° C. for three minutes was added and mixed. 5 μL of intrinsic activator solution with aprotinin that had been warmed to approximately 37° C. for one minute was added. The sample was mixed and read in the T2reader. The clotting time measurement was obtained after 5 minutes and then the platelet activity and fibrinolysis measurements were obtained over the following 60 minutes. In a separate assay the effects of the amounts of activator were tested.
Platelet activity and fibrinolysis measurements for the 3 donor samples in the T2In assay are shown in FIG. 15a-15b. tPA levels of 0 nM, 2 nM or 4 nM were added to citrated whole blood. Blood samples (36.7 μL) were activated by addition of 5 μL ellagic acid solution with CaCl2. T2MR data was collected for 65 min. The addition of tPA cleaves the fibrin mesh of the clot and results in clot dissolution over time. This is detected by T2MR by the change in T2 value of the serum peak (third phase). […]

Assay [3] deals with re-calcified citrated whole blood. In words: T2MR fibrinolysis of thrombin-clotted re-calcified citrated blood after tPA addition. As to the method:
In one embodiment, blood clotting was initiated by addition of 2 μL of a 0.2 M CaCl2 solution and 2 μL of thrombin (Sigma-Aldrich, St. Louis, Mo., final concentration 0.1-3.0 U/ml) to 34 μL of blood in a 200 μL PCR tube (Eppendorf, Hauppauge, N.Y.). All components were pre-warmed for 1 min at 37° C. before mixing. Samples were mixed by three aspiration and dispersion cycles using a pipette, then put into the T2MR reader for measurement. Typical run length was 30 min with a 10 sec sampling rate. For some experiments, data collection time was extended to 1 hr.
To establish T2MR signatures for fibrinolysis, tissue plasminogen activator (tPA, Alteplase, Genentech, South San Francisco, Calif.) was added to samples clotted by thrombin. Blood clotting was initiated as described above, and the sample was incubated for […] to allow for complete clot contraction. Then, 0.5-1 μM tPA was added to clotted and contracted samples. Care was taken not to disturb clots, which were usually attached to the tube wall. The pipette tip was carefully placed into the visible serum layer on the tube side opposite to the contracted clot, and 3 μL of tPA solution was added with a single dispensing of the pipettor. The tPA solutions were made from a stock solution prepared according to manufacturer instructions using 0.15 M sodium chloride, pH 7.4.
In one embodiment, the dependencies of the T2MR signals during clotting of re-calcified citrated blood samples from healthy donors initiated by adding 3 U/ml thrombin was measured. Thrombin activates platelets and cleaves fibrinogen to form a three-dimensional fibrin network stabilized by factor XIIIa. Addition of thrombin led to rapid formation of a gelatinous meshwork that filled the sample volume accompanied by a small, rapid decrease in the T2MR signal over tens of seconds due to the sample transitioning from a liquid to gel state. In the initial gel state, only one relaxation rate was observed (FIG. 2, part a), reflecting uniform distribution of erythrocytes and other blood components. Approximately four minutes after thrombin addition, the T2MR signal split into two peaks representing distinct water populations in slow exchange with each other. […]
We then assessed the sensitivity of the T2MR platform to fibrinolysis by adding tissue-type plasminogen activator (tPA) to the clotted samples 30 minutes after thrombin.
The compartment generating the signal in FIG. 2, part b, at 300 ms that dropped to 200 ms was assessed by testing two conditions: (1) re-calcified citrated whole blood activated with thrombin to form a contracted clot and (2) re-calcified citrated whole blood activated with thrombin followed by addition of tPA. After incubation, samples were analyzed before and after mixing with a pipette to re-suspend unbound erythrocytes. […]

Assay [4] has as its system citrated whole blood. Description: T2In intrinsic assay for platelet activity, ReoPro titration. As to the method:
Citrated whole blood from normal donors was spiked with varying concentrations of the platelet inhibitor ReoPro (Abcixirnab). 5 μL of ellagic acid solution with CaCl2 was used to activate 36.7 μL of blood with or without ReoPro inhibition. T2MR data was collected for 35 minutes. Addition of platelet inhibitor had no effect on T2MR measured clot time or % deltaT2. […] There was some donor to donor differences in responsiveness to ReoPro.

Assay [5] concerns citrated blood. In words: T2MR clot strength (DiffT2), calcium and kaolin activation of abciximab-treated citrated blood. The note with it: abciximab 4 or 8 μg/ml added ex vivo; 13 minutes after activation; 3 healthy donors. On the procedure: (§1) The DiffT2 value was calculated by taking the difference between the upper and middle T2 values in the T2MR signature at a time point 13 minutes after activation. Data are shown here using samples from 3 healthy donors where clot strength was adjusted by ex vivo addition of abciximab (ReoPro) at a level of 0, 4, or 8 μg/ml prior to measurement. All samples containing abciximab were at DiffT2 values of <100 ms or TEG MA values less than 40.
(§2) A 0.5 mg/ml solution of abciximab was prepared by diluting the stock 10 mg/5 ml solution by 1:4 in saline. The abciximab-treated blood samples were incubated for at least 5 min prior to clotting. Clotting was initiated by adding 2 μL 0.2 M CaCl2 and 2 μL TEG kaolin to 34 μL of abciximab-treated blood sample. To compare the T2MR signal to TEG MA, a DiffT2 parameter was calculated by taking the difference in T2 between the upper and middle peaks at a time point 13 min after adding calcium and kaolin. The TEG MA values were measured on the same samples following manufacturer instructions.
(§3) For comparison between T2MR and TEG, calcium and kaolin activation of citrated blood was used and normal donor samples were treated with various amounts of abciximab, an inhibitor of the platelet glycoprotein αIIbβ3 receptor that binds fibrin and is essential for clot contraction.

Assay [6] relates to citrated blood. Description: Thromboelastography maximum amplitude (TEG MA) on the same abciximab-treated samples. As to conditions: abciximab 4 or 8 μg/ml added ex vivo; 3 healthy donors. On the procedure: as §1, §2, §3
[7] abbreviates: tPA added 30 minutes after thrombin.
Where [8] appears, read: ellagic acid with CaCl2, varying ReoPro concentrations.

B1: tPA: tissue plasminogen activator (tPA, Alteplase, Genentech), inducer of fibrinolysis (protein, UniProt P00750 36-562, looked up)
Tissue-type plasminogen …: SYQVICRDEKTQMIYQQHQSWLRPVLRSNRVEYCWCNSGRAQCHSVPVKSCSEPRCFNGGTCQQALYFSDFVCQCPEGFAGKCCEIDTRATCYEDQGISYRGTWSTAESGAECTNWNSSALAQKPYSGRRPDAIRLGLGNHNYCRNPDRDSKPWCYVFKAGKYSSEFCSTPACSEGNSDCYFGNGSAYRGTHSLTESGASCLPWNSMILIGKVYTAQNPSAQALGLGKHNYCRNPDGDAKPWCHVLKNRRLTWEYCDVPSCSTCGLRQYSQPQFRIKGGLFADIASHPWQAAIFAKHRRSPGERFLCGGILISSCWILSAAHCFQERFPPHHLTVILGRTYRVVPGEEEQKFEVEKYIVHKEFDDDTYDNDIALLQLKSDSSRCAQESSVVRTVCLPPADLQLPDWTECELSGYGKHEALSPFYSERLKEAHVRLYPSSRCTSQHLLNRTVTDNMLCAGDTRSGGPQANLHDACQGDSGGPLVCLNDGRMTLVGIISWGLGCGQKDVPGVYTKVTNYLDWIRDNMRP
modifications: alteplase
Take B1: the “clotting time curves (% deltaT2)” value in the assay with citrated whole blood [1] is given as “appear to overlay”. For the same molecule, the “change in T2 value of the serum peak (third phase)” value in the assay on citrated whole blood [2] is “larger change”. Also, the “200-300 ms signal after mixing” value in assay [3] (clotted with thrombin then lysed with tPA, mixed with a pipette) is “disappeared altogether”. Further, in assay [3] (setting [7]), the “T2 value of the upper peak after tPA addition” value is reported as “decreased rapidly” and the “third peak at ~100 ms after tPA addition” value is “persisted”. In addition, the “T2 value of the middle peak after tPA addition” value in assay [3] (tPA added 30 minutes after thrombin, decreased from 250) is listed as 175 ms.

B2: abciximab (antibody, chains of the INN, looked up, V domains shown)
VH: EVQLQQSGTVLARPGASVKMSCEASGYTFTNYWMHWVKQRPGQGLEWIGAIYPGNSDTSYIQKFKGKAKLTAVTSTTSVYMELSSLTNEDSAVYYCTLYDGYYVFAYWGQGTLVTVSA
VL: EIVLTQSPVTLSVTPGDSVSLSCRASRDISNNLHWFQQTSHESPRLLIKYASQSMSGIPSRFSGSGSGTDFTLSINSVETEDFGMYFCQQTNSWPYTFGGGTKLEIK
modifications: Fab
Turning to B2, in the assay with citrated whole blood [4] (setting [8]), the “effect on % deltaT2” value was “no effect” and the “effect on T2MR measured clot time” value was “no effect”. Moreover, in the assay with citrated whole blood [4] (intrinsic activator, 5 μg/mL and 10 μg/mL ReoPro), the “platelet activity measurement (FIG. 27)” value was “inhibition of platelet activity”. Besides, in the assay on citrated blood [5], the DiffT2 is < 100 ms. Besides, the “TEG MA” value in the assay with citrated blood [6] is “less than 40”.
